Experimental data taken from PMC11677393 (International Journal of Molecular Sciences, 2024).

Experiments:
[1] = biological target: the molecule itself; test: crystal structure; apo GLI1(234–302), no DNA; sitting drop, 29–32% PEG3350, 0.1 M Bis-Tris pH 6.5; two molecules in the asymmetric unit, space group P65, 2.05 Å
[2] = biological target: the molecule itself; test: SEC; Superdex 75 during purification; 20 mM HEPES pH 7.6, 500 mM NaCl, 0.1 mM TCEP; elution compared with standard proteins

B1: Human GLI1 truncation containing zinc finger motif 1 and 2 (residue 234–302) (domain or fragment)
chain: ETDCRWDGCSQEFDSQEQLVHHINSEHIHGERKEFVCHWGGCSRELRPFKAQYMLVVHMRRHTGEKPHK
notes: TEV protease was used to remove His-SUMO; Two zinc ions per chain; also called GLI1 Zif1-2; source: E. coli Rosetta pLysS, purified (Ni-NTA, TEV cleavage, glutathione column, HiTrap Q HP, Superdex 75); not shown: His6, N-terminal, cleaved; SUMO (yeast SMT3), N-terminal, cleaved
- binding result [1]: binds

B2: GLI1(234–388) (domain or fragment, human, UniProt P08151 234-388, looked up)
chain: ETDCRWDGCSQEFDSQEQLVHHINSEHIHGERKEFVCHWGGCSRELRPFKAQYMLVVHMRRHTGEKPHKCTFEGCRKSYSRLENLKTHLRSHTGEKPYMCEHEGCSKAFSNASDRAKHQNRTHSNEKPYVCKLPGCTKRYTDPSSLRKHVKTVHG
notes: a few residues of the TEV site and linker may remain at the N-terminus (surmised); PDB 2GLI is the cited structure of GLI1 Zif1-5 with DNA; also called Zif truncation with 5 Zif motifs; Zif1-5; not shown: His6, N-terminal, cleaved; SUMO (yeast SMT3), N-terminal, cleaved
- stoichiometry N [2]: 2

B3: GLI1(234–326) (domain or fragment, human, UniProt P08151 234-326, looked up)
chain: ETDCRWDGCSQEFDSQEQLVHHINSEHIHGERKEFVCHWGGCSRELRPFKAQYMLVVHMRRHTGEKPHKCTFEGCRKSYSRLENLKTHLRSHT
notes: a few residues of the TEV site and linker may remain at the N-terminus (surmised); also called Zif truncation with 3 Zif motifs; not shown: His6, N-terminal, cleaved; SUMO (yeast SMT3), N-terminal, cleaved
- stoichiometry N [2]: 2

B4: GLI1(234–358) (domain or fragment)
chain: not shown
notes: a few residues of the TEV site and linker may remain at the N-terminus (surmised); also called Zif truncation with 4 Zif motifs; not shown: His6, N-terminal, cleaved; SUMO (yeast SMT3), N-terminal, cleaved
- stoichiometry N [2]: 2
